From patent US20150132307A1 (Hoffmann-La Roche, published 2015)

T1: Human recombinant soluble TWEAK (Example 6) (human, UniProt O43508 99-249, limits assumed)
T1 sequence: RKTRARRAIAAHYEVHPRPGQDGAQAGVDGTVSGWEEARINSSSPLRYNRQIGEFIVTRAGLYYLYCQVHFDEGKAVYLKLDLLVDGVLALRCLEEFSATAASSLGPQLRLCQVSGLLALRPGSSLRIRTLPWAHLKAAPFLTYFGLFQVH

T2: human Flag-tagged soluble TWEAK (amino acids 106-249) (human, UniProt O43508 106-249)
T2 construct: The sentence gives amino acids 106-249 without naming the entry; also called Human TWEAK; not shown: Flag tag
T2 sequence: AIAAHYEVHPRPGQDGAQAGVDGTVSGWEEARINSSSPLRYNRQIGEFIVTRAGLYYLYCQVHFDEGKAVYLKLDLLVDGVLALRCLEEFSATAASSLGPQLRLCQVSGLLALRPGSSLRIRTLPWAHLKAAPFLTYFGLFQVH

T3: Mouse soluble TWEAK (untagged, Example 5) (mouse, UniProt O54907 105-249, limits assumed)
T3 construct: also called Murine TWEAK
T3 sequence: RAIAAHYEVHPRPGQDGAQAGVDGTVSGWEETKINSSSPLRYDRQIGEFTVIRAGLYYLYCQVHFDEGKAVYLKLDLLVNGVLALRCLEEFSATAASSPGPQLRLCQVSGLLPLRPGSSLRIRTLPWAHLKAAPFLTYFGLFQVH

T4: Recombinant human TWEAK (R&D Systems; Cat. #1090-TW/CF) (human, UniProt O43508 97-249, limits assumed)
T4 sequence: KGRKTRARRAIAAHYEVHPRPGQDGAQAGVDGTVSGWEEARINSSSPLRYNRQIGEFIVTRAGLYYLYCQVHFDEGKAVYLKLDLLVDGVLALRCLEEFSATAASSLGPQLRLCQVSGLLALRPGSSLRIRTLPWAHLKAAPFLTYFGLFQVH

T5: IL-17 F/F (human, UniProt Q96PD4 31-163)
T5 construct: read as the homodimer of IL17F
T5 sequence: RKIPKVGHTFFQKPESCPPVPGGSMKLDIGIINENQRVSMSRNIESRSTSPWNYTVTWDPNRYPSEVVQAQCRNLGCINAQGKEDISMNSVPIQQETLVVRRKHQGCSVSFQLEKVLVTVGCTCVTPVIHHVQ

T6: Biotinylated human soluble TWEAK (amino acids 99-249 of SEQ ID NO: 68) (human, UniProt O43508 99-249, biotinylated)
T6 construct: also called Human TWEAK
T6 sequence: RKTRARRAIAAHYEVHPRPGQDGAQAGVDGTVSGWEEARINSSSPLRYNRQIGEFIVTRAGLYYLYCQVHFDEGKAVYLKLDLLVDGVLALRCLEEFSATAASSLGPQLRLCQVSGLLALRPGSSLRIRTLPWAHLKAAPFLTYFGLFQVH


What was measured:
[1] = target: T1, Human recombinant soluble TWEAK …; assay: cell-based or functional assay
[2] = target: T2, human Flag-tagged soluble TWEAK (amino …); assay: receptor interaction ELISA: Flag-TWEAK 2.5 ng/ml preincubated with antibody, then on coated human Fn14:Fc (competitor m21)
Method: 96-well Maxisorp® plates (Nunc) were coated with 100 μl 1 μg/ml human Fn14:Fc (extracellular domain of human Fn14 (amino acids 1-75 of SEQ ID NO: 98) fused to Fc portion of human IgG1) in PBS per well for 1.5 h at room temperature and blocked with a solution of 5% FBS in PBS for 30 minutes at room temperature under shaking. […] After washing the Fn14-coated plate once with wash buffer (0.1% Tween® 20 in PBS), 100 μl of the TWEAK-antibody solution were transferred to each well and the plate was incubated for 1 h at room temperature, followed by four washes with wash buffer. Wells were filled with 100 μl of anti-FLAG-HRP detection antibody, diluted 1:5000 in blocking buffer, and incubated for 1 h at room temperature. After four more wash steps, the signal was developed by addition of 100 μl 3,3,5,5-Tetramethylbenzidine (TMB) solution for approximately ten minutes. The reaction was stopped by adding 100 μl of 1 N HCl, and absorbance measured at 450 nm (reference wavelength 620 nm).

[3] = target: T3, Mouse soluble TWEAK (untagged, Example …); assay: receptor interaction ELISA: mouse soluble TWEAK 4 ng/ml preincubated with antibody, then on coated mouse Fn14:Fc (competitor m22)
Method: Briefly, Maxisorp plates were coated with mouse Fn14:Fc (extracellular domain of mouse Fn14 (amino acids 1-75 of SEQ ID NO: 98) fused to Fc portion of human IgG1) as described above for human Fn14:Fc, followed by blocking and washing. […] After 1 h of incubation at room temperature and four washes, biotinylated anti-mouse TWEAK antibody at 125 ng/ml in blocking buffer was added for 1 h at room temperature, followed by another four wash steps. The TWEAK antibody was detected by incubation with streptavidin-HRP, diluted 1:5000 in blocking buffer, for 30 minutes at room temperature. Signal was developed and absorbance measured as described above.

[4] = target: T4, Recombinant human TWEAK (R&D Systems; …); assay: cell-based or functional assay
[5] = target: T5, IL-17 F/F; assay: SPR (BIAcore T100), antibody captured by anti-human F(ab')2, IL17 as analyte, 25 C
Method: (§1) Around 12000 resonance units (RU) of the capturing system (10 μg/ml goat anti human F(ab′)2; Order Code: 28958325; GE Healthcare Bio-Sciences AB, Schweden) were coupled on a CMS chip at pH 5.0 by using an amine coupling kit supplied by the GE Healthcare. The sample and system buffer was PBS-T (10 mM phosphate buffered saline including 0.05% Tween20) pH 7.4. The bispecific antibody was captured by injecting a 50 nM solution for 1 min at a flow of 10 μl/min. Association was measured by injection human IL17 in various concentrations in solution for 3 min at a flow of 30 μl/min starting with 50 nM in 1:1 dilutions. The dissociation phase was monitored for up to 5 min and triggered by switching from the sample solution to running buffer. The surface was regenerated by two times 60 sec. washing with a glycin pH 2.1 solution at a flow rate of 30 μl/min. Bulk refractive index differences were corrected by subtracting the response obtained from a goat anti human F(ab′)2 surface. Blank injections are also subtracted (=double referencing). For calculation of apparent KD and other kinetic parameters the Langmuir 1:1 model was used.

[6] = target: T7, IL-17 A/F (human, UniProt Q16552 24-155; Q96PD4 31-163); assay: SPR (BIAcore T100), antibody captured by anti-human F(ab')2, IL17 as analyte, 25 C, 1:1 model
T7 construct: read as the heterodimer of IL17A and IL17F
T7 sequence (Q16552 24-155 limits assumed, one chain of several): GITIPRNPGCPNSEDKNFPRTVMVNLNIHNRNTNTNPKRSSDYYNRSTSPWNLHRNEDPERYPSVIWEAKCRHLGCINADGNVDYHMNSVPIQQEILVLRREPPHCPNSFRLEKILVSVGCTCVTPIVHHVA
Method: as §1

[7] = target: human IL17A/A (human, UniProt Q16552 24-155, limits assumed); assay: SPR (BIAcore T100), antibody captured by anti-human F(ab')2, IL17 as analyte, 25 C, apparent KD, 1:1 model
Sequence of human IL17A/A (Q16552 24-155 limits assumed): as the sequence (Q16552 24-155 limits assumed, one chain of several) above
Method: as §1

[8] = target: T6, Biotinylated human soluble TWEAK (amino …); assay: SPR (Biacore 2000), biotinylated soluble TWEAK on streptavidin chip, antibody 100 nM as analyte, 25 C
Method: A Biacore 2000 instrument was used with a Biacore streptavidin coated sensor mounted into the system. The system buffer HBS-ET (10 mM HEPES pH 7.4, 150 mM NaCl, 1 mM EDTA, 0.05% Tween® 20) was used at a flow rate of 100 μl/min. The sample buffer was the system buffer. Biotinylated human soluble TWEAK (amino acids 99-249 of SEQ ID NO: 68) and biotinylated murine soluble TWEAK (amino acids 81-225 of SEQ ID NO: 69) was immobilized on different flow cells on the SA sensor at 150 RU each. The flow cell FC1 was used as a blank reference cell. Each antibody was injected into the system as an analyte at 100 nM at 100 μl/min for 2 min association time. The dissociation of the immunecomplexes were monitored for 5 min. The sensor surface was washed with HBS-ET for 10 seconds and regenerated using 2×2 minutes injections with 10 mM glycine pH 2.25. This procedure was done at 25° C. The kinetically rate limiting step of the complex dissociation phase in the interval [240 s-300 s] was taken to calculate the dissociation rate kd [1/s] (Biacore Evaluation Software 4.0). According to the equation t1/2 diss=ln(2)/(60×kd), the half-life of the immunocomplexes in minutes was calculated.

Row | Inhibition of IL-8 Secretion IC50 [ng/ml] (A375 cells) [1] | IC50 [2] | IC50 [3] | IC50 (nM) per valency, Tweak induced HFLS proliferation (CellTiter Glo) [4] | Kd [6] | Kd [7] | t/2 diss [min] 25° C. [8] | Binder | binding result [5]
1 | – | – | – | 0.065 nM | 0.25 nM | 0.15 nM | – | Bispecific <Tweak-IL-17> #2 antibody (bispecific antibody, human IgG1, kappa, Bivalent CrossMab (CH1-CL exchanged, WO 2009/080253), IgG1 knobs-into-holes) heavy 1: not shown heavy 2: not shown light 1: DIVMTQSPLSLPVTPGEPASISCRSSQSLVHSNGDTYFHWYLQKPGQSPQLLIYKVSNRFSGVPDRFSGSGSGTDFTLKISRVEAEDVGVYYCSQTTHAPFTFGQGTKLEIKRTVAAPSVFIFPPSDEQLKSGTASVVCLLNNFYPREAKVQWKVDNALQSGNSQESVTEQDSKDSTYSLSSTLTLSKADYEKHKVYACEVTHQGLSSPVTKSFNRGEC light 2: DIQMTQSPSSVSASVGDRVTITCQASQNIYSNLAWYQQKPGKAPKLLIYTASYLASGVPSRFSGSGSGTDYTLTISSLQPEDFATYYCQTAYYNSRPDTVAFGGGTKVEIKSSASTKGPSVFPLAPSSKSTSGGTAALGCLVKDYFPEPVTVSWNSGALTSGVHTFPAVLQSSGLYSLSSVVTVPSSSLGTQTYICNVNHKPSNTKVDKKVEPKSC | no binding (tested: IL17 injected starting with 50 nM)
2 | 104 ng/mL | 2.6 ng/mL | – | – | – | – | 147 min | <TWEAK> 305chi (antibody, human IgG1, kappa, V domains shown, Chimer: rabbit variable domains with human kappa and human IgG1 constant regions) VH: QEQLVESGGGLVQPGGSLTLSCKASGFDFSTYYMSWVRQAPGKGLEWIGTVYVRQGTTYYASWLNGRFTISSDNAQNTVDLKMNSLTAADTATYFCAKGGYNYDDAFVIWGPGTLVTVSF VL: AIEMTQTPFSVSAAVGGTVTINCQASQNIYSNLAWYQQKPGQPPKLLMYTASYLASGVPSRFKGSGSRTEYTLTISGVQCADAATYYCQTAYYNSRPDTVAFGGGTEVVVKR | –

Second part, the binder before the results:

Row | Binder | Inhibition of IL-8 Secretion IC50 [ng/ml] (A375 cells) [1] | IC50 [2] | IC50 [3] | IC50 (nM) per valency, Tweak induced HFLS proliferation (CellTiter Glo) [4] | Kd [6] | Kd [7] | t/2 diss [min] 25° C. [8] | binding result [5]
3 | <TWEAK> 301 (rabbit) (antibody, V domains shown, Rabbit parent antibody; purified antibody or hybridoma supernatant was used) VH: QSLEESGGGLVKPGASLTLTCTASGFTFNANYWICWVRQAPGKGLEWIACIYGGGNSGAYYASWATGRFTISRTSSTTVTLQMTSLTAADTATYFCARGPISRDLWGPGTLVTVSL VL: DVVMTQTPASVSEPVGGTVTIKCQASQSIYSSLAWYQQKPGQPPKLLIYDAFDLASGVSSRFTGSGSGTQFTLTISDLECADAATYYCQSTDYGNSWDGNPFGGGTEVVVT | 128 ng/mL | 3.4 ng/mL | 4.7 ng/mL | – | – | – | – | –
4 | <TWEAK> 304 (rabbit) (antibody, V domains shown, Rabbit parent antibody) VH: QSLEESGGDLVKPGASLTLTCKASGFSFSSTYYMCWVRQAPGKGLEWIGCIYVGSSGAPYYASWAKGRFTISKTSSTTVALQMTSLTPADTATYVCTRSVHFGDLWGPGTLVTVSS VL: DVVMTQTPSPVSAAVGGTVTIKCQASQSIGNDLSWYQQKPGQRPKLLIYSVSTLASGVPSRFKGSGSGTEYSLTISDVQCADAATYYCQCIDYGNNYVGNTFGGGTEVVVK | 109 ng/mL | 2.8 ng/mL | 3.6 ng/mL | – | – | – | – | –
